B1: Pistol ribozyme (parent)
chain: GGGUCGUUGUUCCAUAAUCGCGUGGAUAUGGCACGCAAGUUUCUACCGGGCACCGUAAAUGUCCGACUGGAGCCGUUCGGGCGGCUAUAAACAGACCUCAGGCCCGAAGCGUGGCGGCACCUGCCGCCGGUGGUAAAAAAGAUCGGAAGAGCACACGUCU

Variants of: B1
Assay: aptazyme ON/OFF ratio, guanine; higher = stronger switching; co-transcriptional cleavage with and without guanine

In order of rising “aptazyme ON/OFF ratio” value:
1. U7A U8C G9U U10G U11A C12G C13G  0.993
2. U7A U8C G9U U10G U11A C12U  1
3. U7A U8C G9U U10C U11C C13A  1.01
4. U7A U8C G9U U10C U11C C13G  1.02
5. U7A U8C G9U C13G  1.03
6. U7A U8C G9U U10C U11C C13U  1.03
7. U7A U8C G9U U10C U11G C12A  1.04
8. U7A U8C G9U U10A U11C C12U  1.04
9. U7A U8C G9U U10C U11C C12G C13A  1.04
10. U7A U8C G9U U10C U11C C12G C13U  1.04
11. U7A U8C G9U U10C U11C C12U C13A  1.05
12. U7A U8C G9U U10C U11G C12G  1.06
13. U7A U8C G9U U10C U11C C12A C13U  1.06
14. U7A U8C G9U U10A U11C C13U  1.06
15. U7A U8C G9U U10A U11G C12A  1.07
16. U7A U8C G9U U10A U11A C13G  1.08
17. U7A U8C G9U U10C U11C C12U C13G  1.08
18. U7A U8C G9U U10A U11C C13A  1.08
19. U7A U8C G9U U10A U11G C12A C13A  1.08
20. U7A U8C G9U U10C C12U C13G  1.09
21. U7A U8C G9U U10C U11A C13G  1.09
22. U7A U8C G9U U10C U11C C12A C13A  1.09
23. U7A U8C G9U U10C U11A C13A  1.1
24. U7A U8C G9U U10C U11C C12U C13U  1.1
25. U7A U8C G9U U10C U11A C12A C13G  1.1
26. U7A U8C G9U U10A U11C C13G  1.1
27. U7A U8C G9U U10A U11G C12A C13U  1.1
28. U7A U8C G9U U10A U11G C13G  1.1
29. U7A U8C G9U U10A C12G C13A  1.11
30. U7A U8C G9U U10C U11G C12A C13G  1.11
31. U7A U8C G9U U10A C12A C13A  1.12
32. U7A U8C G9U U10C U11A C13U  1.12
33. U7A U8C G9U U10C U11A C12A C13U  1.12
34. U7A U8C G9U U10C U11A C12A C13A  1.12
35. U7A U8C G9U U10A U11G C12G  1.12
36. U7A U8C G9U U10G C12G  1.13
37. U7A U8C G9U U10C U11G C12A C13A  1.13
38. U7A U8C G9U U10G U11A C12A  1.14
39. U7A U8C G9U U10C C12A C13A  1.14
40. U7A U8C G9U U10G C12U C13U  1.14
41. U7A U8C G9U U10C U11G C12U C13A  1.15
42. U7A U8C G9U U10A C12A C13G  1.15
43. U7A U8C G9U U10A U11A C13U  1.16
44. U7A U8C G9U U10C C12U C13U  1.16
45. U7A U8C G9U U10A U11A C13A  1.17
46. U7A U8C G9U U10C U11G C12U  1.17
47. U7A U8C G9U U10A U11A C12A C13A  1.17
48. U7A U8C G9U U10G C12U  1.17
49. U7A U8C G9U U10A U11G C13A  1.17
50. U7A U8C G9U U10C U11G C12U C13U  1.18
51. U7A U8C G9U U10C U11G C12U C13G  1.18
52. U7A U8C G9U U10A C12U  1.18
53. U7A U8C G9U U10A C12A C13U  1.18
54. U7A U8C G9U U10C U11C C12A C13G  1.18
55. U7A U8C G9U U10A U11G C12G C13U  1.18
56. U7A U8C G9U U10C C12U C13A  1.19
57. U7A U8C G9U U10A U11C C12A  1.2
58. U7A U8C G9U U10A U11G C12A C13G  1.2
59. U7A U8C G9U U10A U11G C12G C13A  1.2
60. U7A U8C G9U U10G U11A C12G  1.21
61. U7A U8C G9U U10G U11A C12G C13U  1.21
62. U7A U8C G9U U10G U11A C12G C13A  1.22
63. U7A U8C G9U U10A U11A C12A C13U  1.22
64. U7A U8C G9U U10A U11A C12A C13G  1.22
65. U7A U8C G9U U10C U11C C12G C13G  1.22
66. U7A U8C G9U U10A C12G C13G  1.22
67. U7A U8C G9U U10A C12G  1.23
68. U7A U8C G9U C13U  1.23
69. U7A U8C G9U U10A U11G C13U  1.23
70. U7A U8C G9U U10A C12A  1.25
71. U7A U8C G9U U10C C12A C13U  1.26
72. U7A U8C G9U U10A U11G C12G C13G  1.26
73. U7A U8C G9U C13A  1.27
74. U7A U8C G9U U10A U11C C12G  1.27
75. U7A U8C G9U U10C U11G C12A C13U  1.27
76. U7A U8C G9U U10C C12A C13G  1.29
77. U7A U8C G9U U10A C12G C13U  1.32
78. U7A U8C G9U U10A U11G C12U  1.35
79. U7A U8C G9U U10A  1.4
80. U7A U8C G9U U10G C12A  1.53
81. U7A U8C G9U U10C  1.55
82. U7A U8C G9U U10G C12U C13A  1.61
83. U7A U8C G9U U10G C12U C13G  1.72
84. U7A U8C G9U U10G  3.16
